Two molecules from patent US20230374148A1, “BINDING MOLECULES THAT MULTIMERISE CD45” (UCB BIOPHARMA SRL, priority 2020, published 2023) can be followed below.

Holding throughout (type): cell-based
Test [1] deals with SU-DHL-5. The test is described as follows: Apoptosis of cell lines: SU-DHL-5. As to conditions: SU-DHL-5, 21 hrs. An excerpt: (§1) The following cell lines representing various leukaemia's and lymphoma's, as classified by ATCC (www.atcc.org/), were used: Jurkat—acute T-cell leukaemia; CCRF-SB—B-cell acute lymphoblastic leukaemia; MC116—B-cell undifferentiated lymphoma; Raji, Ramos—Burkitt lymphoma (rare form of B-cell non-Hodgkin lymphoma); SU-DHL-4, SU-DHL-5, SU-DHL-8, NU-DUL-1, OCI-Ly3—Diffuse large B-cell lymphoma; THP-1—acute monocytic leukaemia; and Dakiki—B cell nasopharyngeal carcinoma.
(§2) Prior to an assay being performed, 1 vial of each of the above cell lines was thawed in a 37° C. water bath and then added to 20 ml complete media (RPMI 1640+2 mM GlutaMAX+1% Pen/Strep, all previous supplied by Invitrogen, +10% Fetal Bovine Serum (FBS), Sigma Aldrich). Cells were spun (500 g, 5 min, at RT) and re-suspended in 20 ml complete media to wash and spun again. Cells were resuspended in 10 ml complete media and then counted using a ChemoMetec NucleoCounter NC-3000. 6×10^6 cells of each cell line were spun (500 g, 5 min, at RT) and re-suspended in 4.8 ml complete media. 1×10^5 cells in 80 μl were then added to each well of a Corning Costar 96-well, cell culture treated, U-shaped-bottom microplate (cat no. 07-200-95). The plate was rested in a 37° C., 5% CO2 incubator for 2 hrs
(§3) Stocks of 4133-6294 BYbe and NegCtrl BYbe at 2500 nM in complete media were prepared. In a Greiner 96-well non-binding microplate, both reagents were serially diluted in complete media 1 in 5, seven times to produce to form an 8-point dose curve. […] (final well concentrations 500-0.0064 nM) was added to the cells. Each concentration was produced in triplicate. Camptothecin (cat no. C9911-100MG, Sigma Aldrich) and Staurosporine (cat no. 56942-200UL, Sigma Aldrich) were added as positive controls of apoptosis. Both were diluted in complete media and added to the well to produce a final concentration of 5 μM. Additional positive controls included anti-thymocyte globulin (ATG, indicated by FDA for use in conditioning regimens), Rituximab (anti-CD20, indicated by FDA for Non-Hodgkin Lymphoma and Chronic Lymphocytic Leukaemia) and Campath (anti-CD52, indicated by FDA for B-cell Chronic Lymphocytic Leukaemia). Anti-thymocyte globulin, Rituximab and Campath were added to the wells to produce final concentrations of 200 μg/ml, 500 nM and 200 μg/ml, respectively. […]
(§4) Following the incubation, the plates were spun at 500 g, 5 min, RT, the buffer was aspirated with a BioTek ELx405 microplate washer, and the cells were re-suspended in FACS buffer (PBS+1% bovine serum albumin (BSA)+0.1% NaN3+2 mM EDTA, Sigma Aldrich) to wash and then re-spun and buffer was aspirated to leave the cells in 20 μl residual media. […] Cells were analysed using the Bio-Rad ZE5 Cell Analyzer. […]

For test [2], the system named is Ramos. As to the kind of experiment: Apoptosis of cell lines: Ramos. As to conditions: 21 hrs.
Excerpt: as §1, §2, §3, §4

Test [3] relates to CCRF-SB. The test is described as follows: Apoptosis of cell lines: CCRF-SB. As to conditions: 21 hrs.
Excerpt: as §1, §2, §3, §4

The subject of test [4] is Human whole blood. As to the kind of experiment: T cell count in whole blood at 24 hrs. As to conditions: Fab-KD-Fab or BYbe 100 nM, Campath 10 μg/ml, in comparison with PBS- and NegCtrl BYbe-treated wells. Here is the method:
Human whole blood (Lithium heparin tubes) was taken from one donor (HTA #031219-06) at UCB Pharma Slough, UK according to approved ethical sample collection protocol.
In a Greiner 96-well non-binding microplate, Fab-X and Fab-Y combination 6294-X/4133-Y was added to PBS to give a Fab-KD-Fab concentration of 2000 nM. Similarly, stocks of 4133-6294 BYbe and NegCtrl BYbe were prepared in PBS at 2000 nM. The microplate was incubated for 1 hr at 37° C., 5% CO2. Following the incubation, Fab-KD-Fab and BYbe reagents were then serially diluted in PBS 1 in 5, seven times to produce to form an 8-point dose curve.
12.5 μl of Fab-KD-Fab or BYbe dilution was transferred into Corning Costar 96-well, cell culture treated, U-shaped-bottom microplate (cat no. 07-200-95) and 237.5 μl of whole blood added to each well. Final well concentrations of Fab-KD-Fab or BYbes were 100-0.00128 nM. Campath (clinical grade, diluted from 30 mg/ml stock to 1 mg/ml in PBS, lot number F1002H29) was used as a positive control at a final concentration of 10 μg/ml. Plates were sealed with a gas permeable adhesive seal and plate lids were replaced. […]
Following the incubation with the antibody cocktail, cells were washed twice as outlined above and buffer aspirated to leave the cells in 20 μl residual buffer. […] Cells were analysed live using the Intellicyt iQue Screener PLUS. […]

For the molecule “Campath: anti-CD52, clinical grade, indicated by FDA for B-cell Chronic Lymphocytic Leukaemia; positive control [reference compound]”, the “Campath mean (%) cell reduction” value is reported as 26.74% in test [1] (200 μg/ml), 39.40% in test [2] (200 μg/ml) and 24.86% in test [3] (200 μg/ml). In addition, the “reduction in T cell numbers” value in test [4] is “roughly 8 fold”.

B1: 4133-6294 BYbe: anti-CD45 BYbe (Fab-scFv): 4133 Fab HC-G4S linker-6294 scFv heavy chain paired with 4133 light chain (antibody)
heavy: QEQLVESGGGLVQPEGSLTLTCTASGFSFSGNYYMCWVRQAPGKGLEWIGCLYTGSSGSTYYASWAKGRFTISKTSSTTVTLQMTSLTAADTATYFCARDLGYEIDGYGGLWGQGTLVTVSSGQPKAPSVFPLAPCCGDTPSSTVTLGCLVKGYLPEPVTVTWNSGTLTNGVRTFPSVRQSSGLYSLSSVVSVTSSSQPVTCNVAHPATNTKVDKTVAPSTCSKPGGGGSGGGGSEVQLVESGAELARPGASVKMSCKASGYTFTSYTMHWVKQRPGQCLEWIGYINPSSGYTEYNQKFKDKTTLTADKSSSTAYLQLSSLTSEDSAVYYCARVGDGFYPSWLAYWGQGTLVTVSSGGGGSGGGGSGGGGSGGGGSDIQMTQSPKFLLVSAGDRVTITCKASQSVRNDVAWYQQKPGQSPKLLIFYASKRYTGVPDRFTGSGYGTDFTFTISTVQAEDLAVYFCQQDYSSPTTFGCGTKLEIK
light: AQVLTQTPSPVSAVVGGTVSISCQASQSVYNNNNLSWYQQKPGQPPKLLIYDASKLASGVPSRFKGSGSGTQFTLTISGVQCDDAATYYCLGGYYSSGWYFAFGGGTKVVVKRTPVAPTVLIFPPAADQVATGTVTIVCVANKYFPDVTVTWEVDGTTQTTGIENSKTPQNSADCTYNLSSTLTLTSTQYNSHKEYTCKVTQGTTSVVQSFNRGDC
B1: the “Bottom (%) level of % cell reduction” value in test [1] came out at 43.93%; in test [2], 1.61%; in test [3] it was 13.95%. The “Top (%) level of % cell reduction” value in test [1] is 91.01%; in test [2], 96.11%; in test [3], 83.40%. Moreover, in test [4], the “reduction in T cell numbers” value was 5 fold.
